For one molecule, CCL2 secretion by HMC-1 mast cells (42-cytokine multiplex array), fold change against untreated, 23.4 nM recombinant WT IL-33 without and with 6.7 µg/mL acid-purified histones results are on record in paper PMC6092330.

The experiment addresses acid-purified histones (human (endogenous in TE-7)).

B1: recombinant GST-tagged full-length IL-33 (H00090865-P01, Abnova) (natural protein)
chain: MKPKMKYSTNKISTAKWKNTASKALCFKLGKSQQKAKEVCPMYFMKLRSGLMIKKEACYFRRETTKRPSLKTGRKHKRHLVLAACQQQSTVECFAFGISGVQKYTRALHDSSITGISPITEYLASLSTYNDQSITFALEDESYEIYVEDLKKDEKKDKVLLSYYESQHPSNESGDGVDGKMLMVTLSPTKDFWLHANNKEHSVELHKCEKPLPDQAFFVLHNMHSNCVSFECKTDPGVFIGVKDNHLALIKVDSSENLCTENILFKLSET
In the case of B1, the CCL2 secretion by HMC-1 mast cells (42-cytokine multiplex array), fold change against untreated, 23.4 nM recombinant WT IL-33 without and with 6.7 µg/mL acid-purified histones was determined as 822 fold.
